Test results from patent US20170119913A1 (3B PHARMACEUTICALS, published 2017).

Molecular target: T1, CCR1 (h), C-C chemokine receptor type 1 (human (printed as (h)), UniProt P32246 1-355)
T1 sequence (looked up): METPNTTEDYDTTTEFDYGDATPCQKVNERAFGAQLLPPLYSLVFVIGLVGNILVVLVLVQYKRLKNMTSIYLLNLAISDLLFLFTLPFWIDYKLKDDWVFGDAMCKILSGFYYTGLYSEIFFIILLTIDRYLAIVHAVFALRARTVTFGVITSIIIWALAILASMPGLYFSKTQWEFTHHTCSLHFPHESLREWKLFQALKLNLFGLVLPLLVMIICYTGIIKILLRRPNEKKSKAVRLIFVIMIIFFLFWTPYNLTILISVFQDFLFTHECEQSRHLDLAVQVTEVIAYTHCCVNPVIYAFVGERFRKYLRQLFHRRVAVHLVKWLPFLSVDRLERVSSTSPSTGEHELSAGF
Assay: Cerep ExpresSProfile radioligand competition binding, reference compound (agonist radioligand)

Ki: 0.041 nM
B1: MIP-1alpha (ligand, UniProt P10147 24-92, looked up)
chain: SLAADTPTACCFSYTSRQIPQNFIADYFETSSQCSKPGVIFLTKRSRQVCADPSEEWVQKYVSDLELSA
